# In article PMC3871639:
# Molecular target: T1, Stat5 (mouse liver nuclear extract, identified by WEMSA immunoblot) (mouse) (UniProt P42232)
# T1 sequence: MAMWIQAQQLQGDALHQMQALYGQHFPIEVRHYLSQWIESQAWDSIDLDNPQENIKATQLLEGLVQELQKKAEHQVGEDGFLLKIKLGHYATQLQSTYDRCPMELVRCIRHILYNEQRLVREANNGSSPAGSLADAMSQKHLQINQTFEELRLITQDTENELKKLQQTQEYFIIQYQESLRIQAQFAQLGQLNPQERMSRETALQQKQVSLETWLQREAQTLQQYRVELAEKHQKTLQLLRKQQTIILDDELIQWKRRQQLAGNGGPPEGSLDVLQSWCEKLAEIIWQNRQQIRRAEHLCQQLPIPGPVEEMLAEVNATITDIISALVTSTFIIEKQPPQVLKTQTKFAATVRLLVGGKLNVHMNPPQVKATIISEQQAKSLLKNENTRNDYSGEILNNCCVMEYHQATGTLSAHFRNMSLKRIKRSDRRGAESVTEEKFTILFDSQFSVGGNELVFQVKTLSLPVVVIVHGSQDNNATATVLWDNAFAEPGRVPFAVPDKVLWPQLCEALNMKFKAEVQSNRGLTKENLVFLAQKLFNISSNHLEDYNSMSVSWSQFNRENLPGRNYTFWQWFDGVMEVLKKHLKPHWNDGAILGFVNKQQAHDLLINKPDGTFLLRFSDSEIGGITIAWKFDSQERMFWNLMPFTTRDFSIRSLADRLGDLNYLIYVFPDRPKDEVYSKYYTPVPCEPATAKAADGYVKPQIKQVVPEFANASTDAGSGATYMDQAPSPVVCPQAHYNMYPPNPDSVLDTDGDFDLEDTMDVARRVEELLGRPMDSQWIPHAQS
# Assay: EMSA + immunoblot of shifted complex (WEMSA)
# Settings: Li-Cor EMSA buffer kit: 1x binding buffer, poly(dI-dC) 1 ug/uL (in 10 mM Tris, 1 mM EDTA, pH 7.5), 25 mM DTT/2.5% Tween-20, 1% NP-40, 100 mM MgCl2 (as listed …)
sequence,measurement,value
GTAATTCCTAGATTCATGGAAGAG (double strand) [Stat5 element probe of mouse Tmprss6 promoter],binding signal (% of baseline shift (decreased by 60%)),40
